Experimental data published in paper PMC4303294 (Biochemistry, 2014).

Target: the molecule itself
Test: SEC

B1: nitrophorin 4 (NP4) reconstituted with the symmetrical hemin, 2,4-dimethyldeuterohemin (natural protein, Rhodnius prolixus, UniProt Q94734 22-205, looked up)
chain: ACTKNAIAQTGFNKDKYFNGDVWYVTDYLDLEPDDVPKRYCAALAAGTASGKLKEALYHYDPKTQDTFYDVSELQVESLGKYTANFKKVDKNGNVKVAVTAGNYYTFTVMYADDSSALIHTCLHKGNKDLGDLYAVLNRNKDAAAGDKVKSAVSAATLEFSKFISTKENNCAYDNDSLKSLLTK
stoichiometry N: 2
